According to patent publication US6509443:

T1: IGF-I F49A on phage (G1S-A70V background, gene III fusion) (human; bacteriophage M13)
T1 chain: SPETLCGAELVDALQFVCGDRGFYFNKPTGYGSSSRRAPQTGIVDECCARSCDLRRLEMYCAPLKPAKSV

T2: IGF-I T4A on phage (G1S-A70V background, gene III fusion) (human; bacteriophage M13)
T2 construct: monovalent on M13 phage; not shown: M13 gene III fragment (residues 249-406) and the junction after residue 70
T2 chain: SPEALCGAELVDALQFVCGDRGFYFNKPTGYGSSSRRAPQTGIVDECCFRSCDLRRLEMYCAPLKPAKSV

T3: IGF-I L5A on phage (G1S-A70V background, gene III fusion) (human; bacteriophage M13)
T3 construct: monovalent on M13 phage; not shown: M13 gene III fragment (residues 249-406) and the junction after residue 70
T3 chain: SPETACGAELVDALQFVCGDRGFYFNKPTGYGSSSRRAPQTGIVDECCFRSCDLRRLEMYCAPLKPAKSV

B1: human IGFBP-1 (other, UniProt P08833 26-259, looked up)
chain: APWQCAPCSAEKLALCPPVSASCSEVTRSAGCGCCPMCALPLGAACGVATARCARGLSCRALPGEQQPLHALTRGQGACVQESDASAPHAAEAGSPESPESTEITEEELLDNFHLMAPSEEDHSILWDAISTYDGSKALHVTNIKKWKEPCRIELYRVVESLAKAQETSGEEISKFYLPNCNKNGFYHSRQCETSMDGEAGLCWCVYPWNGKRIPGSPEIRGDPNCQIYFNVQN
notes: mature
B2: IGF-I E3A on phage (G1S-A70V background, gene III fusion) (ligand)
chain: SPATLCGAELVDALQFVCGDRGFYFNKPTGYGSSSRRAPQTGIVDECCFRSCDLRRLEMYCAPLKPAKSV
notes: monovalent on M13 phage; not shown: M13 gene III fragment (residues 249-406) and the junction after residue 70

What was measured:
[1] = biological target: T1, IGF-I F49A on phage (G1S-A70V …); assay: phage ELISA on coated IGFBP-3, soluble IGFBP-1 as competitor (FIG. 3A); details: remark: other sources report otherwise
[2] = biological target: B2; assay: competitive phage ELISA, soluble vs coated IGFBP-1
Protocol: (§1) Phage particles were harvested and resuspended in PBS buffer as described in Lowman, H. B., "Phage Display of Peptide Libraries on Protein Scaffolds," in Cabilly, S. (ed.), *Combinatorial Peptide Library Protocols* (Humana Press Inc.: Totowa, N.J., 1998), pp. 249–264. Then phage concentrations were normalized to yield a maximal ELISA signal of 0.2–0.4 for each mutant (Lowman, in Cabilly, S. (ed.), supra). Threefold serial dilutions of soluble competitor were prepared on non-absorbent microtiter plates (Nunc, F, 96 wells) with binding buffer (0.5% TWEEN™ 20/PBS) containing phage at the previously-determined concentrations. […] After blocking, the plates containing immobilized target were washed with 0.05% TWEEN™/PBS buffer and subsequently incubated with 80 μl/well of the premixed phage-competitor solutions for 1 hour at room temperature. […] Numbers in Table I represent mean±standard deviation of individually assessed $IC50$ values.
(§2) At least two different clones of every mutant were tested.

[3] = biological target: T4, IGF-I S1G on phage (single mutant of G1S-A70V, gene III fusion) (human; bacteriophage M13, UniProt P05019 49-117); assay: competitive phage ELISA, soluble vs coated IGFBP-1
T4 construct: monovalent on M13 phage; not shown: M13 gene III fragment (residues 249-406) and the junction after residue 70
Protocol: as §1, §2

[4] = biological target: T2, IGF-I T4A on phage (G1S-A70V …); assay: competitive phage ELISA, soluble vs coated IGFBP-1
Protocol: as §1, §2

[5] = biological target: T5, IGF-I S69A on phage (G1S-A70V background, gene III fusion) (human; bacteriophage M13); assay: competitive phage ELISA, soluble vs coated IGFBP-1
T5 construct: monovalent on M13 phage; not shown: M13 gene III fragment (residues 249-406) and the junction after residue 70
Protocol: as §1, §2

[6] = biological target: T6, IGF-I V70A on phage (single mutant of G1S-A70V, gene III fusion) (human; bacteriophage M13); assay: competitive phage ELISA, soluble vs coated IGFBP-1
T6 construct: monovalent on M13 phage; not shown: M13 gene III fragment (residues 249-406) and the junction after residue 70
Protocol: as §1, §2

[7] = biological target: T3, IGF-I L5A on phage (G1S-A70V …); assay: competitive phage ELISA, soluble vs coated IGFBP-1
Protocol: as §1, §2

[8] = biological target: T7, recombinant human IGFBP-3 (human, UniProt P17936 28-291); assay: competitive phage ELISA
T7 construct: mature
Protocol: as §1, §2

human IGFBP-1 = biological target: B1; assay: competitive phage ELISA
Protocol: as §1, §2

T7 sequence (P17936 28-291): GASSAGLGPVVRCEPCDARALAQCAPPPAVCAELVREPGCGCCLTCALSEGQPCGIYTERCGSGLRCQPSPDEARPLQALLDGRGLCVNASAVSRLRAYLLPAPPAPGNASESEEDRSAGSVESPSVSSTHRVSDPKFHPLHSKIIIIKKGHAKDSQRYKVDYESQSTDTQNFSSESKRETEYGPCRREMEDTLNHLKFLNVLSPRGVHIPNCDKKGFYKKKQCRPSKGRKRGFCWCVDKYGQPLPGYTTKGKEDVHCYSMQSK

Row | Binder | shift of the binding curve against G1S-A70V phage [1] | IC50 [2] | IC50 [3] | IC50 [4] | IC50 [5] | IC50 [6] | IC50 [7] | binding result [8] | binding result (human IGFBP-1)
1 | B1 | > 100 fold | 278 nM | 11.2 nM | 19.4 nM | 12.8 nM | 19.1 nM | 55.3 nM |  | 
2 | B2 |  |  |  |  |  |  |  | binds | binds
